Measurements from patent publication US9816117B2, “Methods, reagents and cells for biosynthesizing compounds” (INVISTA North America S.á r.l., priority 2014, dated 2017).

Legend:
Format in all cases: biochemical
[1] = ω-transaminase enzyme activity assay, forward direction (adipate semialdehyde to 6-aminohexanoate); details: cell free extract; 10 mM adipate semialdehyde, 10 mM L-alanine; 25° C., 4 h; against empty vector control (FIG. 18)
Protocol: (§1) A nucleotide sequence encoding a His-tag was added to the genes from Chromobacterium violaceum, Pseudomonas aeruginosa, Pseudomonas syringae, Rhodobacter sphaeroides, and Vibrio fluvialis encoding the ω-transaminases of SEQ ID NOs: 7, 8, 9, 10 and 12, respectively (see FIG. 9) such that N-terminal HIS tagged w-transaminases could be produced. Each of the resulting modified genes was cloned into a pET21a expression vector under control of the T7 promoter and each expression vector was transformed into a BL21[DE3] E. coli host. The resulting recombinant E. coli strains were cultivated at 37° C. in a 250 mL shake flask culture containing 50 mL LB media and antibiotic selection pressure, with shaking at 230 rpm. Each culture was induced overnight at 16° C. using 1 mM IPTG.
(§2) The pellet from each induced shake flask culture was harvested via centrifugation. Each pellet was resuspended and lysed via sonication. The cell debris was separated from the supernatant via centrifugation and the cell free extract was used immediately in enzyme activity assays.
Enzyme activity in the forward direction (i.e., adipate semialdehyde to 6-aminohexanoate) was confirmed for the transaminases of SEQ ID NO 7, SEQ ID NO 8, SEQ ID NO 9, SEQ ID NO 10 and SEQ ID NO 12. Enzyme activity assays were performed in a buffer composed of a final concentration of 50 mM HEPES buffer (pH=7.5), 10 mM adipate semialdehyde, 10 mM L-alanine and 100 μM pyridoxyl 5′ phosphate. Each enzyme activity assay reaction was initiated by adding a cell free extract of the ω-transaminase gene product or the empty vector control to the assay buffer containing the adipate semialdehyde and incubated at 25° C. for 4 h, with shaking at 250 rpm. The formation of pyruvate was quantified via RP-HPLC.

[2] = ω-transaminase enzyme activity assay, reverse direction (6-aminohexanoate to adipate semialdehyde); details: cell free extract; 10 mM 6-aminohexanoate, 10 mM pyruvate; 25° C., 24 h; against empty vector control (FIG. 17)
Protocol: as §1, §2
Enzyme activity assays in the reverse direction (i.e., 6-aminohexanoate to adipate semialdehyde) were performed in a buffer composed of a final concentration of 50 mM HEPES buffer (pH=7.5), 10 mM 6-aminohexanoate, 10 mM pyruvate and 100 μM pyridoxyl 5′ phosphate. Each enzyme activity assay reaction was initiated by adding cell free extract of the ω-transaminase gene product or the empty vector control to the assay buffer containing the 6-aminohexanoate and incubated at 25° C. for 24 h, with shaking at 250 rpm. The formation of L-alanine from pyruvate was quantified via RP-HPLC.

[3] = carboxylate reductase enzyme activity assay (adipate to adipate semialdehyde); details: purified enzyme enhanced by sfp gene product; 2 mM adipate; room temperature, 20 min; against empty vector control (FIG. 12)
Protocol: A sequence encoding a HIS-tag was added to the genes from Segniliparus rugosus and Segniliparus rotundus that encode the carboxylate reductases of SEQ ID NOs: 4 and 6, respectively (see FIG. 9), such that N-terminal HIS tagged carboxylate reductases could be produced. Each of the modified genes was cloned into a pET Duet expression vector along with a sfp gene encoding a HIS-tagged phosphopantetheine transferase from Bacillus subtilis, both under the T7 promoter. Each expression vector was transformed into a BL21[DE3] E. coli host and the resulting recombinant E. coli strains were cultivated at 37° C. in a 250 mL shake flask culture containing 50 mL LB media and antibiotic selection pressure, with shaking at 230 rpm. Each culture was induced overnight at 37° C. using an auto-induction media.
The pellet from each induced shake flask culture was harvested via centrifugation. Each pellet was resuspended and lysed via sonication, and the cell debris was separated from the supernatant via centrifugation. […]
Enzyme activity assays (i.e., from adipate to adipate semialdehyde) were performed in triplicate in a buffer composed of a final concentration of 50 mM HEPES buffer (pH=7.5), 2 mM adipate, 10 mM MgCl2, 1 mM ATP and 1 mM NADPH. […] The consumption of NADPH was monitored by absorbance at 340 nm.

| Molecule | ω-transaminase activity: acceptance of 6-aminohexanoate as substrate (formation of L-alanine from pyruvate, RP-HPLC) [2] | ω-transaminase activity: acceptance of adipate semialdehyde as substrate (formation of pyruvate, RP-HPLC) [1] | carboxylate reductase activity: acceptance of adipate as substrate (consumption of NADPH, absorbance at 340 nm) [3] |
| --- | --- | --- | --- |
| SEQ ID NO 8: Pseudomonas aeruginosa ω-transaminase (Genbank Accession No. AAG08191.1) (protein, listed as Pseudomonas aeruginosa) MNARLHATSPLGDADLVRADQAHYMHGYHVFDDHRVNGSLNIAAGDGAYIYDTAGNRYLDAVGGMWCTNIGLGREEMARTVAEQTRLLAYSNPFCDMANPRAIELCRKLAELAPGDLDHVFLTTGGSTAVDTAIRLMHYYQNCRGKRAKKHVITRINAYHGSTFLGMSLGGKSADRPAEFDFLDERIHHLACPYYYRAPEGLGEAEFLDGLVDEFERKILELGADRVGAFISEPVFGSGGVIVPPAGYHRRMWELCQRYDVLYISDEVVTSFGRLGHFFASQAVFGVQPDIILTAKGLTSGYQPLGACIFSRRIWEVIAEPDKGRCFSHGFTYSGHPVACAAALKNIEIIEREGLLAHADEVGRYFEERLQSLRDLPIVGDVRGMRFMACVEFVADKASKALFPESLNIGEWVHLRAQKRGLLVRPIVHLNVMSPPLILTREQVDTVVRVLRESIEETVEDLVRAGHR |  | accepted adipate semialdehyde as substrate |  |
| SEQ ID NO 4: Segniliparus rugosus carboxylate reductase (Genbank Accession No. EFV11917.1) (protein, listed as Segniliparus rugosus) MGDGEERAKRFFQRIGELSATDPQFAAAAPDPAVVEAVSDPSLSFTRYLDTLMRGYAERPALAHRVGAGYETISYGELWARVGAIAAAWQADGLAPGDFVATVGFTSPDYVAVDLAAARSGLVSVPLQAGASLAQLVGILEETEPKVLAASASSLEGAVACALAAPSVQRLVVFDLRGPDASESAADERRGALADAEEQLARAGRAVVVETLADLAARGEALPEAPLFEPAEGEDPLALLIYTSGSTGAPKGAMYSQRLVSQLWGRTPVVPGMPNISLHYMPLSHSYGRAVLAGALSAGGTAHFTANSDLSTLFEDIALARPTFLALVPRVCEMLFQESQRGQDVAELRERVLGGRLLVAVCGSAPLSPEMRAFMEEVLGFPLLDGYGSTEALGVMRNGIIQRPPVIDYKLVDVPELGYRTTDKPYPRGELCIRSTSLISGYYKRPEITAEVFDAQGYYKTGDVMAEIAPDHLVYVDRSKNVLKLSQGEFVAVAKLEAAYGTSPYVKQIFVYGNSERSFLLAVVVPNAEVLGARDQEEAKPLIAASLQKIAKEAGLQSYEVPRDFLIETEPFTTQNGLLSEVGKLLRPKLKARYGEALEARYDEIAHGQADELRALRDGAGQRPVVETVVRAAVAISGSEGAEVGPEANFADLGGDSLSALSLANLLHDVFEVEVPVRIIIGPTASLAGIAKHIEAERAGASAPTAASVHGAGATRIRASELTLEKFLPEDLLAAAKGLPAADQVRTVLLTGANGWLGRFLALEQLERLARSGQDGGKLICLVRGKDAAAARRRIEETLGTDPALAARFAELAEGRLEVVPGDVGEPKFGLDDAAWDRLAEEVDVIVHPAALVNHVLPYHQLFGPNVVGTAEIIRLAITAKRKPVTYLSTVAVAAGVEPSSFEEDGDIRAVVPERPLGDGYANGYGNSKWAGEVLLREAHELVGLPVAVFRSDMILAHTRYTGQLNVPDQFTRLVLSLLATGIAPKSFYQQGAAGERQRAHYDGIPVDFTAEAITTLGAEPSWFDGGAGFRSFDVFNPHHDGVGLDEFVDWLIEAGHPISRIDDHKEWFARFETAVRGLPEAQRQHSLLPLLRAYSFPHPPVDGSVYPTGKFQGAVKAAQVGSDHDVPHLGKALIVKYADDLKALGLL |  |  | accepted adipate as substrate |
| SEQ ID NO 7: Chromobacterium violaceum ω-transaminase (Genbank Accession No. AAQ59697.1) (protein, listed as Chromobacterium violaceum) MQKQRTTSQWRELDAAHHLHPFTDTASLNQAGARVMTRGEGVYLWDSEGNKIIDGMAGLWCVNVGYGRKDFAEAARRQMEELPFYNTFFKTTHPAVVELSSLLAEVTPAGFDRVFYTNSGSESVDTMIRMVRRYWDVQGKPEKKTLIGRWNGYHGSTIGGASLGGMKYMHEQGDLPIPGMAHIEQPWWYKHGKDMTPDEFGVVAARWLEEKILEIGADKVAAFVGEPIQGAGGVIVPPATYWPEIERICRKYDVLLVADEVICGFGRTGEWFGHQHFGFQPDLFTAAKGLSSGYLPIGAVFVGKRVAEGLIAGGDFNHGFTYSGHPVCAAVAHANVAALRDEGIVQRVKDDIGPYMQKRWRETFSRFEHVDDVRGVGMVQAFTLVKNKAKRELFPDFGEIGTLCRDIFFRNNLIMRACGDHIVSAPPLVMTRAEVDEMLAVAERCLEEFEQTLKARGLA | accepted 6-aminohexanote as substrate | accepted adipate semialdehyde as substrate |  |

Continued, in another order:

| ω-transaminase activity: acceptance of 6-aminohexanoate as substrate (formation of L-alanine from pyruvate, RP-HPLC) [2] | Molecule | ω-transaminase activity: acceptance of adipate semialdehyde as substrate (formation of pyruvate, RP-HPLC) [1] | carboxylate reductase activity: acceptance of adipate as substrate (consumption of NADPH, absorbance at 340 nm) [3] |
| --- | --- | --- | --- |
| accepted 6-aminohexanote as substrate | SEQ ID NO 10: Rhodobacter sphaeroides ω-transaminase (Genbank Accession No. ABA81135.1) | accepted adipate semialdehyde as substrate |  |
| accepted 6-aminohexanote as substrate | SEQ ID NO 12: Vibrio Fluvialis ω-transaminase (Genbank Accession No. AEA39183.1) (protein, Vibrio Fluvialis) MNKPQSWEARAETYSLYGFTDMPSLHQRGTVVVTHGEGPYIVDVNGRRYLDANSGLWNMVAGFDHKGLIDAAKAQYERFPGYHAFFGRMSDQTVMLSEKLVEVSPFDSGRVFYTNSGSEANDTMVKMLWFLHAAEGKPQKRKILTRWNAYHGVTAVSASMTGKPYNSVFGLPLPGFVHLTCPHYWRYGEEGETEEQFVARLARELEETIQREGADTIAGFFAEPVMGAGGVIPPAKGYFQAILPILRKYDIPVISDEVICGFGRTGNTWGCVTYDFTPDAIISSKNLTAGFFPMGAVILGPELSKRLETAIEAIEEFPHGFTASGHPVGCAIALKAIDVVMNEGLAENVRRLAPRFEERLKHIAERPNIGEYRGIGFMWALEAVKDKASKTPFDGNLSVSERIANTCTDLGLICRPLGQSVVLCPPFILTEAQMDEMFDKLEKALDKVFAEVA | accepted adipate semialdehyde as substrate |  |
| accepted 6-aminohexanote as substrate | SEQ ID NO 9: Pseudomonas syringae ω-transaminase (Genbank Accession No. AAY39893.1) (protein, listed as Pseudomonas syringae) MSANNPQTLEWQALSSEHHLAPFSDYKQLKEKGPRIITRAEGVYLWDSEGNKILDGMSGLWCVAIGYGREELADAASKQMRELPYYNLFFQTAHPPVLELAKAISDIAPEGMNHVFFTGSGSEGNDTMLRMVRHYWALKGQPNKKTIISRVNGYHGSTVAGASLGGMTYMHEQGDLPIPGVVHIPQPYWFGEGGDMTPDEFGIWAAEQLEKKILELGVENVGAFIAEPIQGAGGVIVPPDSYWPKIKEILSRYDILFAADEVICGFGRTSEWFGSDFYGLRPDMMTIAKGLTSGYVPMGGLIVRDEIVAVLNEGGDFNHGFTYSGHPVAAAVALENIRILREEKIVERVRSETAPYLQKRLRELSDHPLVGEVRGVGLLGAIELVKDKTTRERYTDKGAGMICRTFCFDNGLIMRAVGDTMIIAPPLVISFAQIDELVEKARTCLDLTLAVLQG | accepted adipate semialdehyde as substrate |  |
